In patent publication US20260258125A1 one finds fold change of EC50 and EC50 (read off the curve) data, which are given here for one molecule.

Assay [1] addresses membrane-bound endogenous human CEACAM5 and CEACAM6 on BxPC3 cells. Briefly: flow cytometry on BxPC3 cells with against without 100 nM soluble CEACAM6.
For assay [2], the target named is membrane-bound endogenous human CEACAM5 and CEACAM6 on A549 cells. The experiment in a line: flow cytometry on A549 cells (printed over the panel: CEACAM5-, CEACAM6+), MFI.
Assay [3] addresses membrane-bound endogenous human CEACAM5 and CEACAM6 on LS 174T cells. Briefly: flow cytometry on LS174T cells with against without 100 nM soluble CEACAM6.

B1: PR303563 (Tinurilimab) (antibody, human IgG2, kappa, V domains shown)
VH: QVTLRESGPALVKPTQTLTLTCTFSGFSLSTYGIGVGWIRQPPGKALEWLAHIWWNDNKYYSTSLKTRLTISKDTSKNQVVLTMTNMDPVDTATYYCARISLPYFDYWGQGTTLTVSS
VL: DIQLTQSPSFLSASVGDRVTITCKASQNVGTAVAWYQQKPGKAPKLLIYSASNRYTGVPSRFSGSGSGTEFTLTISSLQPEDFATYYCQQYSSYPLTFGGGTKVEIKR
Turning to B1, the values for the fold change of EC50 at the presence of 100 nM soluble protein in assay [1] and in assay [3] were 4.1 fold and 6.9 fold, respectively. The concentration giving a half-maximal response (EC50 (read off the curve)) in assay [2] is 0.1 nM.
